This passage reports MFI results from patent US20230227548A1.

This test addresses murine GPRC5D (murine) (UniProt Q9JIL6). Briefly: FACS, murine GPRC5D cells. Background: Flow cytometry measures light scatter and fluorescence of single cells or particles in a stream.

Sequence of murine GPRC5D (murine) (Q9JIL6 whole entry): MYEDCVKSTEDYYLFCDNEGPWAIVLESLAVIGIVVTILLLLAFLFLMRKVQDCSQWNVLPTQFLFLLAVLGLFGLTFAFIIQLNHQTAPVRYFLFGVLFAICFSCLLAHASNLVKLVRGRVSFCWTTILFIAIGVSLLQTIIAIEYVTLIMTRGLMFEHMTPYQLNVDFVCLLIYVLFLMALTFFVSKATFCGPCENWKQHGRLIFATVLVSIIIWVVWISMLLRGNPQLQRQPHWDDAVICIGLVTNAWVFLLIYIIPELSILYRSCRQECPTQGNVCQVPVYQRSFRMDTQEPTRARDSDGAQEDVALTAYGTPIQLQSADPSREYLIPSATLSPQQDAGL

B1: GCDB72 (bispecific antibody, IgG4, V domains shown)
VH 1: EVQLVESGGGLVQPGGSLRLSCAASGFTFNTYAMNWVRQAPGKGLEWVARIRSKYNNYATYYAASVKGRFTISRDDSKNSLYLQMNSLKTEDTAVYYCARHGNFGNSYVSWFAYWGQGTLVTVSS
VL 1: QTVVTQEPSLTVSPGGTVTLTCRSSTGAVTTSNYANWVQQKPGQAPRGLIGGTNKRAPGTPARFSGSLLGGKAALTLSGVQPEDEAEYYCALWYSNLWVFGGGTKLTVL
VH 2: QVQLVQSGAEVKKPGASVKVSCKASGYSFTGYTMNWVRQAPGQGLEWMGLINPYNSDTNYAQKLQGRVTMTTDTSTSTAYMELRSLRSDDTAVYYCARVALRVALDYWGQGTLVTVSS
VL 2: DIQMTQSPSSLSASVGDRVTITCKASQNVATHVGWYQQKPGKAPKRLIYSASYRYSGVPSRFSGSGSGTEFTLTISNLQPEDFATYYCQQYNRYPYTFGQGTKLEIK
B1 returned an MFI of 481.
